The target of experiment [1] is T1, Human CD228 protein (human, UniProt P08582 20-708, limits assumed).
T1 construct: Recombinant protein made in CHO cells, purified over a Ni column; The printed entry begins with the leader (MRGPSG...) and ends with ten His; also called hCD228; CD228-His protein
T1 sequence: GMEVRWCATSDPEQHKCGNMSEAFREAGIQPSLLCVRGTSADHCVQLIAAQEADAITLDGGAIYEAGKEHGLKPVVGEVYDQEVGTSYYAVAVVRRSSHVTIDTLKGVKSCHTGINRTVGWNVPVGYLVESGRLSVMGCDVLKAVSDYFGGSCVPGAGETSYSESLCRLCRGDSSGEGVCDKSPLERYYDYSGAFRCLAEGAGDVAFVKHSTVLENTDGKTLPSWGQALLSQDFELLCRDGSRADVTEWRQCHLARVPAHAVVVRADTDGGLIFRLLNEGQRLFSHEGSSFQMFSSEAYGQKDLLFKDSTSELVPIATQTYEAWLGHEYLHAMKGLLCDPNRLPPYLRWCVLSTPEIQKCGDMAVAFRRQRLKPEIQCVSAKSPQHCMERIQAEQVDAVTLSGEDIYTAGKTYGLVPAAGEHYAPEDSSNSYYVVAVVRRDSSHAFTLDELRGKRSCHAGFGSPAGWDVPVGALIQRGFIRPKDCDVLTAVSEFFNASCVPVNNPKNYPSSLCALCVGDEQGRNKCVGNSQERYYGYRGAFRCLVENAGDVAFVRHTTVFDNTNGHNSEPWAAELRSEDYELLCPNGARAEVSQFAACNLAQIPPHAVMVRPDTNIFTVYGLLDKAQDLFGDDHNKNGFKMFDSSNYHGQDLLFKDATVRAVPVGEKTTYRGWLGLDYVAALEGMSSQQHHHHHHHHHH
The experiment can be described thus: Octet, CD228 on His chip; PBST buffer in place of the first antibody. As to the method: (§1) CD228 proteins were immobilized on His chips at 10 μg/mL with a threshold of 0.5 nm. The first CD228 antibody (30 μg/mL) was immobilized, and the competitive binding of the second CD228 antibody (30 μg/mL) was analyzed. The Octet 8K system was used to analyze the response of antibody 2 and to determine whether antibody 1 and antibody 2 were in competition.
A general note: Biolayer interferometry detects binding as a change in optical thickness at a sensor tip.

In experiment [2] the target is T1, Human CD228 protein. Description: Octet competition on His-chip CD228; competitor: hl49. As to the method:
as §1

Experiment [3] deals with T1, Human CD228 protein. Description: Octet competition on His-chip CD228; competitor: CA149. As to the method: as §1
(§2) The final competition analysis was conducted using the following calculation method: 1—response value/blank value.

Experiment [4] addresses T1, Human CD228 protein. Description: Octet competition on His-chip CD228; competitor: hl49. As to the method:
as §1, §2
The source holds these as a separate data set.

In experiment [5] the target is T1, Human CD228 protein. The experiment can be described thus: Octet competition on His-chip CD228; competitor: CA149. As to the method:
as §1
The source holds these as a separate data set.

For experiment [6], the target named is T1, Human CD228 protein. Description: Octet competition on His-chip CD228; competitor: BA352. As to the method:
as §1, §2

Experiment [7] deals with T1, Human CD228 protein. Description: Octet competition on His-chip CD228; competitor: CA185. As for the experimental part:
as §1

Experiment [8] concerns the target T1, Human CD228 protein. The experiment can be described thus: Octet competition on His-chip CD228; competitor: CA67. As to the method:
as §1, §2

A further experiment deals with T2, Mouse CD228 protein (mouse, UniProt Q9R0R1 20-708, limits assumed).
T2 construct: Recombinant His-tagged protein from CHO cells
T2 chain: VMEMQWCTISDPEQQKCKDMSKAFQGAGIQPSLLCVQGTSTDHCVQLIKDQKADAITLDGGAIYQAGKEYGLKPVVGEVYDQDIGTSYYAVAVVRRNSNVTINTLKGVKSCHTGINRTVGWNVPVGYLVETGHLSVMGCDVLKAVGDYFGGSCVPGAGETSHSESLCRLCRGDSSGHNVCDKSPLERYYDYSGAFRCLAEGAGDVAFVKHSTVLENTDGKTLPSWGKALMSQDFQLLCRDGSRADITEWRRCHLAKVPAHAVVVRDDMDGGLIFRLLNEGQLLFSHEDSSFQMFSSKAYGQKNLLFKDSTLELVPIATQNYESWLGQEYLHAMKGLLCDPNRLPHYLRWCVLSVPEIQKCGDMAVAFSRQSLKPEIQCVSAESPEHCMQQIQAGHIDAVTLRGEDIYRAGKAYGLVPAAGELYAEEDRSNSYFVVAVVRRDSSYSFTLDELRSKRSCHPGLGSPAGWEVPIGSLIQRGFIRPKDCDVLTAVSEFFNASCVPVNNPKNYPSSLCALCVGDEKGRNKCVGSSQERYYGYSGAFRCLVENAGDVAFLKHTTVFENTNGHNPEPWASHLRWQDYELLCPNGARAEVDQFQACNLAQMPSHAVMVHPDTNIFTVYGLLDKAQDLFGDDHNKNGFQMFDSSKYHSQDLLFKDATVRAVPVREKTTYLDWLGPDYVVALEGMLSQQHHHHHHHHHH
The experiment can be described thus: SPR, BIAcore 8K; antibody on ProA chip, CD228 protein as analyte. As for the experimental part: The binding kinetics of the antibodies to the CD228 proteins was measured using the BIAcore 8K system based on surface plasmon resonance (SRP). CD228 antibodies were immobilized on ProA chips at a concentration of 2 μg/mL, and the binding activity of the CD228 antibodies to human, monkey, and mouse CD228 proteins was analyzed. Human, monkey and mouse CD228 proteins were serially 2-fold diluted from 50 nM to 5 concentrations with an HBS-EP+ buffer. The binding kinetics of the CD228 proteins were analyzed by Biacore, and the affinity activity KD values were calculated by fitting.
(In general: SPR reads the build-up and loss of mass on a sensor chip optically.)

Positions count from the first letter of the chain named.

B1: CA13 (antibody, human IgG1, kappa, V domains shown)
VH: EVQLVESGGGVVQPGRSLRLSCAASGFTFSSYAMHWVRQAPGKGLEWVAVISYDGSNKYYADSVKGRFTISRDNSKNTLFLQMNSLRAEDTAVYYCARDVYHYGSRSPYYYGMDVWGQGTTVTVSS
VL: DIVMTQSPSSLSASVGDRVTITCRASQGISNYLAWFQQKPGKVPKLLIYAASTLQSGVPSRFSGSGSGTDFTLTISSLQPEDVATYYCQKYNSAPFTFGPGTKVDIKR
notes: Intact IgG1 from fully human antibody-transgenic mice
Take B1: the “Octet response value (blank value, PBST buffer)” value with Human CD228 protein [1] stood at 0.393. Further, the Octet response value with Human CD228 protein [2] was 0.353; in the experiment with Human CD228 protein [5] it was -0.0059; with Human CD228 protein [7] it was -0.0061. In addition, the “competition (1-response value/blank value)” value with Human CD228 protein [3] was 101%; in the experiment with Human CD228 protein [4], -2%; with Human CD228 protein [6] it was -9%; in the experiment with Human CD228 protein [8], 100%. Also, the binding result in the experiment with Mouse CD228 protein is “no binding”.

B2: CA67 (antibody, human IgG1, kappa, V domains shown)
VH: B1 VH with F80Y
VL: B1 VL with V3Q, G28A, F36Y, Q55H, S56P
notes: Intact IgG1
In the case of B2, in the experiment with Human CD228 protein [1], the “Octet response value (blank value, PBST buffer)” value is 0.425. Besides, the values for the Octet response value with Human CD228 protein [2], with Human CD228 protein [5] and in the experiment with Human CD228 protein [7] were 0.33, -0.012 and -0.0132, respectively. For the same molecule, the “competition (1-response value/blank value)” value in the experiment with Human CD228 protein [3] is 103%; with Human CD228 protein [4], 5%; with Human CD228 protein [6] it was -8%; in the experiment with Human CD228 protein [8] it was 102%. The binding result with Mouse CD228 protein is on record as “no binding”.

B3: CA518 (antibody, human IgG1, kappa, V domains shown)
VH: B1 VH with Y60H, A97V
VL: B1 VL with V3Q, L11V, N31S, Y32W, F36Y, V43A, T53S
notes: Intact IgG1
Consider B3, for which, in the experiment with Human CD228 protein [1], the “Octet response value (blank value, PBST buffer)” value was found to be 0.442. Moreover, the Octet response value is 0.281 with Human CD228 protein [2], -0.0041 in the experiment with Human CD228 protein [5] and -0.0043 with Human CD228 protein [7]. Further, the “competition (1-response value/blank value)” value with Human CD228 protein [3] is 101%; with Human CD228 protein [4], 19%; in the experiment with Human CD228 protein [6], -5%; with Human CD228 protein [8], 99%. Moreover, the binding result with Mouse CD228 protein is recorded as “no binding”.

B4: reference antibody hL49 (antibody, human IgG1, kappa, V domains shown)
VH: QVQLQESGPGLVKPSETLSLTCTVSGDSITSGYWNWIRQPPGKGLEYIGYISDSGITYYNPSLKSRVTISRDTSKNQYSLKLSSVTAADTAVYYCARRTLATYYAMDYWGQGTLVTVSS
VL: DFVMTQSPLSLPVTLGQPASISCRASQSLVHSDGNTYLHWYQQRPGQSPRLLIYRVSNRFSGVPDRFSGSGSGTDFTLKISRVEAEDVGVYYCSQSTHVPPTFGQGTKLEIKR
notes: also called H149; hL49 analogy
For the molecule B4, the “Octet response value (blank value, PBST buffer)” value with Human CD228 protein [1] is 0.347. For the same molecule, the Octet response value in the experiment with Human CD228 protein [2] is 0.0169; with Human CD228 protein [5], 0.435; in the experiment with Human CD228 protein [7] it was 0.432. In addition, the “competition (1-response value/blank value)” value with Human CD228 protein [3] is -6%; in the experiment with Human CD228 protein [4] it was 95%; with Human CD228 protein [6], 55%; with Human CD228 protein [8], -7%. Besides, the binding result in the experiment with Mouse CD228 protein is “no binding”.

B5: BA352 (antibody, human IgG1, kappa, V domains shown)
VH: EVQLVESGGGVVQPGRSLRLSCAASGFTFSSYAMHWVRQAPGKGLEWVAVISYDGSNKYYADSVKGRFTISRDNSKNTLYLQMNSLRAEDTAVYYCARGPYLAAAGTALTFDIWGQGTMVTVSS
VL: DIQMTQSPSAMSASVGDRVTITCRASQGINNYLAWFQQKPGKVPKRLIYAASSLQSGVPSRFSGSGSGTEFTLTISSLQPEDFATYYCLQHNSYPFTFGPGTKVDIKR
notes: Intact IgG1
For the molecule B5, the “Octet response value (blank value, PBST buffer)” value in the experiment with Human CD228 protein [1] turned out to be 0.393. Also, the Octet response value in the experiment with Human CD228 protein [2] worked out at 0.0006; with Human CD228 protein [5] it was 0.416; in the experiment with Human CD228 protein [7], 0.426. Moreover, the “competition (1-response value/blank value)” value with Human CD228 protein [3] was -2%; in the experiment with Human CD228 protein [4], 100%; with Human CD228 protein [6] it was 94%; with Human CD228 protein [8], -4%. In addition, in the experiment with Mouse CD228 protein, the binding result is recorded as “no binding”.

B6: CA149 (antibody, human IgG1, kappa, V domains shown)
VH: EVQLVESGGGVVQPGRSLRLSCAASGFTFSSYAMHWVRQAPGKGLEWVAVISFDGSNKYYTDSVKGRFTISRDNSKNTLYLQMNSLRAEDTAVYYCAREVPYYYGSGPFDYWGQGTLVTVSS
VL: EIVLTQSPATLSVSPGERATLSCRASQSVSSNLAWYQQKPGQAPRHLIDGASSRASGIPDRFSGSGSGTDFTLTISRLEPEDFAVYYCQQYGSSPPFTFGPGTKVDIKR
notes: Intact IgG1; also called CA149 antibody
For the molecule B6, in the experiment with Human CD228 protein [1], the “Octet response value (blank value, PBST buffer)” value was determined as 0.409. Moreover, the Octet response value with Human CD228 protein [2] was 0.348; with Human CD228 protein [5], 0.0039; with Human CD228 protein [7], 0.0102. Further, the “competition (1-response value/blank value)” value is 99% with Human CD228 protein [3], 0% with Human CD228 protein [4], -12% in the experiment with Human CD228 protein [6] and 98% in the experiment with Human CD228 protein [8]. Also, the binding result in the experiment with Mouse CD228 protein is recorded as “no binding”.

B7: CA185 (antibody, human IgG1, kappa, V domains shown)
VH: B6 VH with F53Y, T61A
VL: EIVLTQSPGTLSLSPGERATLSCRASQSVSSSSLAWYQQKPGQAPRHLIDGASSRASGIPDRFSGSGSGTDFTLTISRLEPEDFAVYYCQQYGSSYTFGQGTKVDIKR
notes: Intact IgG1
With B7, the “Octet response value (blank value, PBST buffer)” value in the experiment with Human CD228 protein [1] is 0.411. Further, the results for the Octet response value with Human CD228 protein [2], in the experiment with Human CD228 protein [5] and with Human CD228 protein [7] were 0.356, 0.0089 and 0.0055, respectively. For the same molecule, the “competition (1-response value/blank value)” value is 98% with Human CD228 protein [3], -3% with Human CD228 protein [4], -17% with Human CD228 protein [6] and 99% with Human CD228 protein [8]. In the experiment with Mouse CD228 protein, the binding result is listed as “no binding”.

For the origin of these results see patent publication US20250121082A1 (SHANDONG BOAN BIOTECHNOLOGY, published 2025).
